Source: the supplement of paper PMC7125110
± gives the standard error. Fewer inactive variants are shown than the library holds.

B1: glmS ribozyme (parent)
chain: AUAAAAGCGCCAGAACUACAGAAAUGUAGUUGACGAGGAGGAGGUUUAUCGAAUUUUCGGCGGAUGCCUCCAAA

Assays:
Conditions in all cases: with glucosamine-6-phosphate
glucosamine-6-phosphate [1] = variants of: B1; assay: self-cleavage kobs at 640 uM GlcN6P; higher = faster cleavage; RNA array
Method in brief: (§1)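 The measurements used barcoded ribozyme variants on sequenced MiSeq chips, transcribed in situ by E. coli RNA polymerase and tracked at 37 °C with a hybridised Cy3 probe. Glucosamine-6-phosphate, 40 μM to 10 mM in HEPES/KCl/Mg(OAc)2 buffer, was flowed in while tiles were imaged over ~14 h. Baseline-normalised signals, also normalised to non-cleaving reference variants, gave per-tile medians that were fit to one- or two-exponential decays for kobs. kcat and KM resulted from weighted Michaelis–Menten fits across concentrations.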

glucosamine-6-phosphate [2] = variants of: B1; assay: self-cleavage kobs at 2500 uM GlcN6P; higher = faster cleavage; RNA array
Method in brief: as §1

glucosamine-6-phosphate [3] = variants of: B1; assay: self-cleavage kobs at 10000 uM GlcN6P; higher = faster cleavage; RNA array
Method in brief: as §1

G13U U55G U56C was tested, and the “self-cleavage kobs at 640 uM GlcN6P” value (glucosamine-6-phosphate [1]) was 7.76e-05 ± 2.4e-05 s⁻¹ and the “self-cleavage kobs at 2500 uM GlcN6P” value (glucosamine-6-phosphate [2]) was 0.000112 ± 2.5e-05 s⁻¹.

A15G G51U G63U C68G was tested, and the “self-cleavage kobs at 640 uM GlcN6P” value (glucosamine-6-phosphate [1]) was 9.97e-05 ± 4.5e-05 s⁻¹ and the “self-cleavage kobs at 2500 uM GlcN6P” value (glucosamine-6-phosphate [2]) was 0.000286 ± 0.00011 s⁻¹.

With A14G C16G U30C the “self-cleavage kobs at 640 uM GlcN6P” value (glucosamine-6-phosphate [1]) was 9.39e-05 ± 1.9e-05 s⁻¹.

With C16A G59U G60A the “self-cleavage kobs at 640 uM GlcN6P” value (glucosamine-6-phosphate [1]) was under 1e-05 s⁻¹.

In the case of A12C U49G C67U, the “self-cleavage kobs at 640 uM GlcN6P” value (glucosamine-6-phosphate [1]) is reported as 5e-05 ± 1.4e-05 s⁻¹ and the “self-cleavage kobs at 2500 uM GlcN6P” value (glucosamine-6-phosphate [2]) is reported as 7.89e-05 ± 1.5e-05 s⁻¹.

G13U C61U C70G was tested, and the “self-cleavage kobs at 640 uM GlcN6P” value (glucosamine-6-phosphate [1]) was under 1e-05 s⁻¹.

For A12G U30A A52C U54C, the “self-cleavage kobs at 640 uM GlcN6P” value (glucosamine-6-phosphate [1]) was under 1e-05 s⁻¹ and the “self-cleavage kobs at 2500 uM GlcN6P” value (glucosamine-6-phosphate [2]) was under 1e-05 s⁻¹.

With G13C A33C the “self-cleavage kobs at 640 uM GlcN6P” value (glucosamine-6-phosphate [1]) was under 1e-05 s⁻¹ and the “self-cleavage kobs at 2500 uM GlcN6P” value (glucosamine-6-phosphate [2]) was under 1e-05 s⁻¹.

G13U G60U C68A C71A was tested, and the “self-cleavage kobs at 640 uM GlcN6P” value (glucosamine-6-phosphate [1]) was under 1e-05 s⁻¹ and the “self-cleavage kobs at 2500 uM GlcN6P” value (glucosamine-6-phosphate [2]) was under 1e-05 s⁻¹.

In the case of C11U U47A A53G U56A C70G, the “self-cleavage kobs at 640 uM GlcN6P” value (glucosamine-6-phosphate [1]) is reported as 5.74e-05 ± 1.8e-05 s⁻¹ and the “self-cleavage kobs at 2500 uM GlcN6P” value (glucosamine-6-phosphate [2]) is reported as 0.000104 ± 3.4e-05 s⁻¹.

In the case of G13C C16U A36G U69C, the “self-cleavage kobs at 640 uM GlcN6P” value (glucosamine-6-phosphate [1]) is reported as under 1e-05 s⁻¹.

In the case of C16U A53U U54G C58A, the “self-cleavage kobs at 640 uM GlcN6P” value (glucosamine-6-phosphate [1]) is reported as 3.02e-05 ± 1.5e-05 s⁻¹, the “self-cleavage kobs at 2500 uM GlcN6P” value (glucosamine-6-phosphate [2]) is reported as 3.59e-05 ± 1.1e-05 s⁻¹ and the “self-cleavage kobs at 10000 uM GlcN6P” value (glucosamine-6-phosphate [3]) is reported as 0.000172 ± 2e-05 s⁻¹.

With C16A G66U C68G the “self-cleavage kobs at 640 uM GlcN6P” value (glucosamine-6-phosphate [1]) was 6.61e-05 ± 2.5e-05 s⁻¹ and the “self-cleavage kobs at 2500 uM GlcN6P” value (glucosamine-6-phosphate [2]) was 6.82e-05 ± 2.8e-05 s⁻¹.

C16A G66U C68A was tested, and the “self-cleavage kobs at 640 uM GlcN6P” value (glucosamine-6-phosphate [1]) was 0.0001 ± 3.2e-05 s⁻¹.

In the case of A12U U31A C34U G37C C70U, the “self-cleavage kobs at 640 uM GlcN6P” value (glucosamine-6-phosphate [1]) is reported as under 1e-05 s⁻¹.

In the case of A12G G13U U47G A53U G66A, the “self-cleavage kobs at 640 uM GlcN6P” value (glucosamine-6-phosphate [1]) is reported as under 1e-05 s⁻¹.

G13C A14U A42U A64G was tested, and the “self-cleavage kobs at 640 uM GlcN6P” value (glucosamine-6-phosphate [1]) was under 1e-05 s⁻¹.

With A15C U54C G66U C70U the “self-cleavage kobs at 640 uM GlcN6P” value (glucosamine-6-phosphate [1]) was 7.59e-05 ± 1.8e-05 s⁻¹ and the “self-cleavage kobs at 2500 uM GlcN6P” value (glucosamine-6-phosphate [2]) was 0.000351 ± 9.2e-05 s⁻¹.

A12U U31C C67U was tested, and the “self-cleavage kobs at 640 uM GlcN6P” value (glucosamine-6-phosphate [1]) was 0.000286 ± 9.1e-05 s⁻¹.

For A14U A64U U65A C67G C71G, the “self-cleavage kobs at 640 uM GlcN6P” value (glucosamine-6-phosphate [1]) was 7.6e-05 ± 2.4e-05 s⁻¹ and the “self-cleavage kobs at 2500 uM GlcN6P” value (glucosamine-6-phosphate [2]) was 4.74e-05 ± 2.1e-05 s⁻¹.

For A14G A15U A48U U69C, the “self-cleavage kobs at 640 uM GlcN6P” value (glucosamine-6-phosphate [1]) was 6.32e-05 ± 2.6e-05 s⁻¹ and the “self-cleavage kobs at 10000 uM GlcN6P” value (glucosamine-6-phosphate [3]) was 7.49e-05 ± 2e-05 s⁻¹.

In the case of G13C C16G G41A, the “self-cleavage kobs at 640 uM GlcN6P” value (glucosamine-6-phosphate [1]) is reported as under 1e-05 s⁻¹.

In the case of C16U A39G C58A, the “self-cleavage kobs at 640 uM GlcN6P” value (glucosamine-6-phosphate [1]) is reported as 9.4e-05 ± 1.7e-05 s⁻¹ and the “self-cleavage kobs at 2500 uM GlcN6P” value (glucosamine-6-phosphate [2]) is reported as 0.000347 ± 4.1e-05 s⁻¹.

For A12G C50G C71G, the “self-cleavage kobs at 640 uM GlcN6P” value (glucosamine-6-phosphate [1]) was 0.000415 ± 0.00014 s⁻¹ and the “self-cleavage kobs at 2500 uM GlcN6P” value (glucosamine-6-phosphate [2]) was 0.000636 ± 0.00027 s⁻¹.

In the case of A14G G29A A39G A42G G43U G62C, the “self-cleavage kobs at 640 uM GlcN6P” value (glucosamine-6-phosphate [1]) is reported as under 1e-05 s⁻¹ and the “self-cleavage kobs at 2500 uM GlcN6P” value (glucosamine-6-phosphate [2]) is reported as under 1e-05 s⁻¹.

In the case of C11U U31A C50G, the “self-cleavage kobs at 640 uM GlcN6P” value (glucosamine-6-phosphate [1]) is reported as 8.34e-05 ± 2.1e-05 s⁻¹ and the “self-cleavage kobs at 2500 uM GlcN6P” value (glucosamine-6-phosphate [2]) is reported as 9.55e-05 ± 3.2e-05 s⁻¹.

For A12C G38U C67U, the “self-cleavage kobs at 640 uM GlcN6P” value (glucosamine-6-phosphate [1]) was under 1e-05 s⁻¹.

With A14U A33C U57C the “self-cleavage kobs at 640 uM GlcN6P” value (glucosamine-6-phosphate [1]) was 0.0103 ± 0.004 s⁻¹.

For G13C G37C U45G, the “self-cleavage kobs at 640 uM GlcN6P” value (glucosamine-6-phosphate [1]) was under 1e-05 s⁻¹ and the “self-cleavage kobs at 2500 uM GlcN6P” value (glucosamine-6-phosphate [2]) was under 1e-05 s⁻¹.

For G13C C34G G35C A52C, the “self-cleavage kobs at 640 uM GlcN6P” value (glucosamine-6-phosphate [1]) was under 1e-05 s⁻¹ and the “self-cleavage kobs at 2500 uM GlcN6P” value (glucosamine-6-phosphate [2]) was under 1e-05 s⁻¹.

For A15C A36C G41U, the “self-cleavage kobs at 640 uM GlcN6P” value (glucosamine-6-phosphate [1]) was under 1e-05 s⁻¹.

For G13C G37U G60U, the “self-cleavage kobs at 640 uM GlcN6P” value (glucosamine-6-phosphate [1]) was under 1e-05 s⁻¹.

In the case of A14U U30G U54C, the “self-cleavage kobs at 640 uM GlcN6P” value (glucosamine-6-phosphate [1]) is reported as 0.000624 ± 0.00011 s⁻¹ and the “self-cleavage kobs at 2500 uM GlcN6P” value (glucosamine-6-phosphate [2]) is reported as 0.00185 ± 0.00046 s⁻¹.
